Experimental findings from the Immune Epitope Database (IEDB) are described below.

For assay [1], the target named is HLA-A*68:02. The experiment in a line: IEDB peptide-MHC binding, purified MHC/competitive/fluorescence; filed as Kd, often an IC50 or EC50 that approximates it; ≥ and ≤ were set here for values at or beyond the usual limits of such assays.
In assay [2] the target is HLA-A*02:03. Kind of assay: IEDB peptide-MHC binding, purified MHC/direct/fluorescence; filed as Kd, often an IC50 or EC50 that approximates it; ≥ and ≤ were set here for values at or beyond the usual limits of such assays. As to conditions: source organism: Choclo virus.
Assay [3] concerns the target HLA-A*02:19. The assay is described as above.
A further assay concerns the target HLA-A*03:01. The description is as above.
The target of assay [4] is HLA-A*02:12. The assay is described as above.
The next assay concerns the target HLA-A*02:11. Described as above. Particulars: source organism: Choclo virus.
For another assay, the target named is HLA-A*02:16. The description is as above. Particulars: source organism: Choclo virus.
A further assay has as its target HLA-B*51:01. Kind of assay: IEDB peptide-MHC binding, purified MHC/competitive/fluorescence; filed as Kd, often an IC50 or EC50 that approximates it; ≥ and ≤ were set here for values at or beyond the usual limits of such assays.
The target in assay [5] is HLA-A*24:03. Described as above.
The target of a further assay is HLA-B*39:01. Described as above.
In assay [6] the target is HLA-B*46:01. The description is as above.
Another assay has as its target HLA-B*27:03. The description is as above.
Assay [7] addresses HLA-A*02:01. Described as above.
Another assay addresses HLA-B*15:17. The description is as above.
The target of a further assay is HLA-A*26:01. The description is as above.
Assay [8] concerns the target HLA-B*57:01. The description is as above.
For assay [9], the target named is HLA-B*18:01. The assay is described as above.
Assay [10] concerns the target HLA-A*69:01. Described as above.
Assay [11] deals with HLA-A*24:03. Kind of assay: IEDB peptide-MHC binding, purified MHC/direct/fluorescence; filed as Kd, often an IC50 or EC50 that approximates it; ≥ and ≤ were set here for values at or beyond the usual limits of such assays. As to conditions: source organism: Limestone Canyon virus.
For a further assay, the target named is HLA-A*29:02. The description is as above. Particulars: source organism: Orthohantavirus andesense.
The target of a further assay is HLA-B*07:02. Described as above. As to conditions: source organism: Orthohantavirus andesense.
The target in the next assay is HLA-B*08:01. The assay is described as above. As to conditions: source organism: Hantavirus Monongahela-3.
Another assay addresses HLA-A*11:01. The assay is described as above. Particulars: source organism: Orthohantavirus andesense.
The target of assay [12] is HLA-B*46:01. The assay is described as above. Particulars: source organism: Orthohantavirus andesense.
In a further assay the target is HLA-A*01:01. The description is as above. As to conditions: source organism: Orthohantavirus andesense.
Assay [13] concerns the target HLA-A*02:01. The assay is described as above. As to conditions: source organism: Orthohantavirus andesense.
Assay [14] deals with HLA-A*68:02. Described as above. Particulars: source organism: Limestone Canyon virus.
The next assay concerns the target HLA-B*27:05. The assay is described as above. Particulars: source organism: Orthohantavirus andesense.
Assay [15] addresses HLA-B*15:01. The assay is described as above. As to conditions: source organism: Orthohantavirus andesense.
The next assay deals with HLA-B*48:01. The assay is described as above. Particulars: source organism: Orthohantavirus andesense.
A further assay concerns the target HLA-B*40:01. Described as above. As to conditions: source organism: Orthohantavirus andesense.
The target in another assay is HLA-A*23:01. Described as above. Particulars: source organism: Limestone Canyon virus.
For assay [16], the target named is HLA-B*57:01. The assay is described as above. Particulars: source organism: Orthohantavirus andesense.
Assay [17] addresses HLA-B*18:01. The assay is described as above. Particulars: source organism: Orthohantavirus andesense.
A further assay has as its target HLA-B*44:02. The description is as above. Particulars: source organism: Orthohantavirus andesense.
For the next assay, the target named is HLA-B*58:01. Described as above. Particulars: source organism: Orthohantavirus andesense.
The target of assay [18] is HLA-A*69:01. The description is as above. Particulars: source organism: Orthohantavirus andesense.
The target in another assay is HLA-A*31:01. The assay is described as above. Particulars: source organism: Orthohantavirus andesense.
The target in assay [19] is HLA-A*02:03. Kind of assay: IEDB peptide-MHC binding, purified MHC/competitive/fluorescence; filed as Kd, often an IC50 or EC50 that approximates it; ≥ and ≤ were set here for values at or beyond the usual limits of such assays. Particulars: source organism: Vibrio vulnificus YJ016.
Assay [20] concerns the target HLA-A*02:19. The description is as above. As to conditions: source organism: Vibrio vulnificus YJ016.
The target of assay [21] is HLA-A*02:12. Described as above. Particulars: source organism: Vibrio vulnificus YJ016.
The target in assay [22] is HLA-B*15:01. The description is as above. As to conditions: source organism: Vibrio vulnificus YJ016.
The mark [23] stands for this setting: source organism: Vibrio vulnificus YJ016.
Where [24] appears, read: source organism: Limestone Canyon virus.
Setting [25] is: source organism: Four Corners hantavirus.

For the sequence STYWLMAGL, in the assay with HLA-A*68:02 [1] (source organism: Yersinia pestis Nepal516), the dissociation constant Kd stood at 0.0005 µM.
As to ESAEVEVYV, in the assay with HLA-A*68:02 [1] (setting [23]), the Kd is no more than 0.0001 µM.
Regarding HWMDATFNI, the dissociation constant (Kd) in the assay with HLA-A*02:03 [2], with HLA-A*02:19 [3] (source organism: Choclo virus), in the assay with HLA-A*03:01 (source organism: Choclo virus), in the assay with HLA-A*02:12 [4] (source organism: Choclo virus), with HLA-A*02:11 and in the assay with HLA-A*02:16 was no less than 20 µM each time. In addition, the Kd was no less than 20 µM in the assay with HLA-B*51:01 (source organism: Choclo virus); no more than 0.0001 µM with HLA-A*24:03 [5] (source organism: Choclo virus); no less than 20 µM with HLA-B*39:01 (source organism: Choclo virus); no less than 20 µM with HLA-B*46:01 [6] (source organism: Choclo virus); no less than 20 µM with HLA-B*27:03 (source organism: Choclo virus); no less than 20 µM in the assay with HLA-A*02:01 [7] (source organism: Choclo virus). For the same sequence, the Kd in the assay with HLA-B*15:17 (source organism: Choclo virus), in the assay with HLA-A*26:01 (source organism: Choclo virus), in the assay with HLA-B*57:01 [8] (source organism: Choclo virus), with HLA-B*18:01 [9] (source organism: Choclo virus) and with HLA-A*69:01 [10] (source organism: Choclo virus) was no less than 20 µM each time.
Turning to EKLKKKSAF, the equilibrium dissociation constant (Kd) in the assay with HLA-A*24:03 [11] is no less than 20 µM; with HLA-A*29:02 it was no less than 20 µM; in the assay with HLA-B*07:02, no less than 20 µM; with HLA-B*08:01, no less than 5 µM; with HLA-A*11:01 it was no less than 20 µM; with HLA-B*46:01 [12] it was no less than 20 µM. Also, the dissociation constant Kd with HLA-A*02:19 [3] (setting [24]), with HLA-A*01:01, in the assay with HLA-A*03:01 (source organism: Orthohantavirus andesense), in the assay with HLA-A*02:12 [4] (setting [24]), in the assay with HLA-A*02:01 [13] and in the assay with HLA-A*68:02 [14] was no less than 20 µM throughout. Further, the equilibrium dissociation constant (Kd) with HLA-B*27:05, with HLA-B*15:01 [15], with HLA-B*48:01, with HLA-B*40:01, with HLA-A*23:01 and with HLA-B*57:01 [16] was no less than 20 µM throughout. Also, the dissociation constant (Kd) with HLA-B*18:01 [17], in the assay with HLA-B*44:02, with HLA-B*58:01, with HLA-A*69:01 [18], with HLA-A*31:01 and in the assay with HLA-B*39:01 (setting [25]) was no less than 20 µM throughout. The Kd with HLA-B*27:03 (setting [25]), with HLA-B*15:17 (setting [25]) and with HLA-A*26:01 (setting [25]) was no less than 20 µM throughout.
With GMWCVLASR, the Kd in the assay with HLA-A*02:03 [19], with HLA-B*51:01 (setting [23]), with HLA-A*24:03 [5] (setting [23]), in the assay with HLA-B*39:01 (setting [23]), with HLA-B*46:01 [6] (setting [23]) and with HLA-A*02:19 [20] was no less than 20 µM each time. Further, the Kd in the assay with HLA-B*27:03 (setting [23]) was no less than 20 µM; with HLA-A*02:12 [21] it was 0.93 µM; with HLA-A*02:01 [7] (setting [23]) it was no less than 20 µM; with HLA-A*68:02 [1] (setting [23]), no less than 20 µM; with HLA-B*15:17 (setting [23]) it was no less than 20 µM; with HLA-A*26:01 (setting [23]) it was no less than 20 µM. In addition, the dissociation constant Kd with HLA-B*15:01 [22], with HLA-B*57:01 [8] (setting [23]), with HLA-B*18:01 [9] (setting [23]) and with HLA-A*69:01 [10] (setting [23]) was no less than 20 µM throughout.
